# Results from publication PMC4000578 (Molecular microbiology, 2014).
# B1: BrlR-His6V5 (Biofilm resistance locus Regulator with a C-terminal His6V5-tag) (natural protein, Pseudomonas aeruginosa PAO1, UniProt Q9HUT5 1-270, looked up)
# chain: MLTIGQLARIFEISTKTLRHYDAIGLFVPARTGSDNGYRYYQPEQIEQLSRILALRRLDVPLEAIDRLKRDGALDDPQRLRHFLQRHQHTLREEISARQRLLAELDRTLATLAHWRIRNMHARIVERPAFSVVGMEYFGSAPGDTIGQLWERFIPREHEIAGKHDPEVSYGICAQQPNGEFHYVAGFEVQEGWPVPEGMVRFQVPAQKYAVFTHKGTAPQIAESFQAIYSHLLAERGLEPKAGVDFEYYDQRFRGPLDPNSQVDLYIPIY
# Target: the molecule itself
# Experiment: cross-linking
protein,measurement,value
B1,stoichiometry N,2
